From the supplement of paper PMC9170038

What was measured:
MS2 coat protein [1] = assay: apparent KD of MS2 coat protein, switch ON state; designed switch direction (-1 OFF switch, 1 ON switch): 1; higher = weaker reporter binding; details: FMN input: 0 or 200 uM; Eterna round: R93 (includes R88 designs)
In short: (§1)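 Apparent KD is reported per design as the median of normalised binding-curve fits across its clusters. The RNA switches were made by on-chip transcription from Illumina sequencing clusters. SNAP-549-labelled MS2 coat protein was then added in twofold steps (0.7 or 1.5 nM to 3 µM; 0.8–1.5 h to 10–20 min per step) in 100 mM Tris-HCl pH 7.5, 80 mM KCl, 4 mM MgCl2, without or with constant ligand.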

MS2 coat protein [2] = assay: apparent KD of MS2 coat protein, switch OFF state (with FMN for OFF switches, without FMN for ON switches); designed switch direction (-1 OFF switch, 1 ON switch): 1; higher = weaker reporter binding; details: FMN input: 0 or 200 uM; Eterna round: R93 (includes R88 designs)
In short: as §1

Sequence	apparent KD of MS2 coat protein (MS2 coat protein [1]) [nM]	apparent KD of MS2 coat protein (MS2 coat protein [2]) [nM]
GUAGAACAUGAGGAUCACCCAUGUGAAGACGCAUGAGGAUAUAUCCGUACAUAGCAUACGAUAGAAGGCAUGAUAA [JR_SS001_Sub1704]	29.6	90.6
GGGAGACAUGAGGAUCACCCAUGUGAGAAGAGGCGAGGAUAUCGAAAGAAAGAAGAGAAACGAGAAGGCGCGAGGG [salish99-SS1-059]	57.4	75
AUAAAAUAAAAUGAGGAUAUCUAUAAUAAAACAUGAGGAUCACCCAUGUUUAAACAAAGAUCAUGGGAGAAGGCAUAAAAUAAAU [SS2 M 40]	15.9	14
AGAAAUAAAAGAGAGGAUAUCCAAAAGAAAACAUGAGGAUCACCCAUGUAGACGAAAGUCAAAUGGGAGAAGGCUCAAAAUAAAG [80% More Helter Skelter 2 + Hairpin]	61.4	98.7
AUAACACAUGAGGAUCACCCAUGUAGAAAUAAGGGAGGAUAUACAAAGACGAAAGUCAAAGUAGAAGGCUCAAAAG [76%, Meechl 4]	14.8	18.6
AUAAAUAAAAGAGAGGAUAUCCAAAAGAAAACAUGAGGAUCACCCAUGUGAAAGAAAAUAAAAUGGGAGAAGGCUCACAAUAAUA [Topaz 32]	23	26
AAGAAACAUGAGGAUCACCCAUGUAAGAUAAACACAGGAUAUGCGAAAGAAAUAAAUAAAGCAGAAGGGUGAAGAA [Mat - Same State 1 - Tesla mod - D148]	22.4	44.5
AAGAAACAUGAGGAUCACCCAUGUAAAAUAAACACAGGAUAUGCGAAAAGAAACAAAGAAGCAGAAGGGUGAAGAA [Mat - Same State 1 - Tesla mod - 56]	16.9	36.2
GAAAAACAUGAGGAUCACCCAUGUGGAAAUAUGGGAGGAUAUACAAAGACGAAAGUCAAAGUAGAAGGCCUAAAAG [Mat - Same State 1 - Eli mod - D4]	18.2	111
AAAAUAUAAAGGAAGGAUAUCCAAAGGACUACAUGAGGAUCACCCAUGUAAAGAAAGAAUAAGUGGGAGAAGGUCCAAAUAAUAA [Designing denovo 31]	27	68.3
GAAAAACAUGAGGAUCACCCAUGUAGAGAUAUGGGAGGAUAUACGAAGACGAAAGUCGAGGUAGAAGGCCUAAAAG [Garnet 56]	27.7	108
CGCAAACAUGAGGAUCACCCAUGUCAAUGUGGUCAAGGAUAUGGGUUCCUAAAUGGAACACCAGAAGGUGAAAAGA [Anesatve]	20	54.5
AGGAGACAUGAGGAUCACCCAUGUGAGAAGAGGCGAGGAUAUCGAAAGAAAGAAGAGAAACGAGAAGGCGCGAGUU [salish99-SS1-022]	25.5	33.8
AAAAAAAAAAACUAGGAUAUUUAACGGACAACAUGAGGAUCACCCAUGUCACAAAAAAAAAUAGUAAAGAAGGAGUAAAAAAAAAA [Same State 2]	25	23.8
GAAAAACAUGAGGAUCACCCAUGUGGAAAUAUGGGAGGAUAUACAAAGACGUAAGUCAAAGUAGAAGGCCUAAAAG [Garnet 94]	30.8	177
CCCAAUGCAACGAAGGAUAUCCGUCAUGCCACAUGAGGAUCACCCAUGUACUGGCGGCACAAGACGGAGAAGGUCGGGUGCUGUG [Quenrean]	9.4	11
AAAAAAAAAAGCUAGGAUAUCCAAAAAAAAACAUGAGGAUCACCCAUGUAAAAAAAAAAAAAAUGGGAGAAGGAGCAAAAAAAAAA [Mod of Eli]	28.5	39.6
AGGAAACAUGAGGAUCACCCAUGUAGAAAUAUGGGAGGAUAUCGGAAUAAAAUAAAGAAACGAGAAGGCCUAAAAG [59%, Flamingo, 3]	38.8	324
GGAUACAUACAGAAGGAUAUGAGAACAAAGACAUGAGGAUCACCCAUGUACAAAAGGUGGAACAAUCAGAAGGUCUAAACAACAAA [Club and Ball]	57.6	52.1
AGGAAACAUGAGGAUCACCCAUGUAAAAAAGUGGGAGGAUAUACUAGAAGAAACAAAAUAGUAGAAGGCCUAAAAA [75%, Ex sub1, 32]	9.99	108
AACAAUCUAUCUGAGGAUAUCAAGUCAAAGACAUGAGGAUCACCCAUGUUGCAGGAAACUGCUCUUGAGAAGGCAGAUAGAUUGA [SS2: 1130]	9.84	13.5
AGAAGACAUGAGGAUCACCCAUGUGGGAAUAUGGGAGGAUAUACAAAGACGAGAGUCAGAGUAGAAGGCCUAGGAA [salish99-SS1-091(!)]	33	132
